Measurements as given in US8993717B2, “Gadd45beta targeting agents” (Imperial Innovations Limited, priority 2009, dated 2015).
Where two headings read alike, the source gives them in different places. Square brackets hold non-standard residues; d marks the D form. Peptide text beside a SMILES is read from it. * marks the point of attachment. Fmoc = O=C(OCC1c2ccccc2-c2ccccc21)*; Myristoyl = CCCCCCCCCCCCCC(=O)*; ClZ = O=C(OCc1ccccc1Cl)*; Cbz = O=C(OCc1ccccc1)*; βAla = NCCC(=O)O

Molecular target: T1, Gadd45β/MKK7 interaction (Homo sapiens, UniProt O14733)
T1 construct: The GST-fused full-length kinase was coated for 16 h at 4° C., at a concentration of 42 nM; made in house
T1 sequence (O14733 1-419): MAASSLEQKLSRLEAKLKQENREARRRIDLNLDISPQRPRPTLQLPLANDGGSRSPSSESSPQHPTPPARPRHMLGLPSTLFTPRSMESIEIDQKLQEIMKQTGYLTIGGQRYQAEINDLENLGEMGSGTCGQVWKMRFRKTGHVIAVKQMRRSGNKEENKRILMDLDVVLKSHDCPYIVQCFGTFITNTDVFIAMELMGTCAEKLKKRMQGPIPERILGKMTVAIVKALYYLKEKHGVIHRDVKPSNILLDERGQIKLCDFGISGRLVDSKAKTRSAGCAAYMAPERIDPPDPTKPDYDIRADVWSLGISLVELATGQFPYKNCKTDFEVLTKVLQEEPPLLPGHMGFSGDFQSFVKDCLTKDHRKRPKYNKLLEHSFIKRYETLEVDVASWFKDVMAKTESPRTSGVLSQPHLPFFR
Test: ELISA competition assay of biotin-hGadd45β binding to coated GST-MKK7
Experimental: To evaluate the inhibitory properties of peptides, ELISA-based assays were performed. In these assays, a fusion protein of glutathione S-transferase (GST) and mitogen-activated protein kinase kinase 7 (MKK7) was coated onto wells of a 96-well plate, while biotinylated-hGadd45β was used in solution. hGadd45β was biotinylated using an EZ Link NHS-LC-biotin kit (Pierce, Rockford, Ill.), according to Tornatore et al. (Tornatore L., et al. (2008). J Mol Biol; 378:97-111).
Firstly, the association between Gadd45β and MKK7 was investigated by ELISA assays as also reported in Tornatore et al. (Tornatore L., et al. (2008). J Mol Biol; 378:97-111). The GST-fused full-length kinase was coated for 16 h at 4° C., at a concentration of 42 nM in buffer A (25 mM Tris pH 7.5, 150 mM NaCl, 1 mM DTT and 1 mM EDTA) into wells of a 96-well microliter plate. Some wells were filled with buffer alone and were used as blanks. After incubation for 16 h at 4° C., the solutions were removed and the wells were filled with 350 μL of a 1% (w/v) solution of NFDM (Non Fat Dry Milk) in PBS (phosphate buffered saline). The plate was incubated for 1 h at 37° C. in the dark. After washing with buffer T-PBS (PBS with 0.004% (v/v) Tween detergent), the wells were filled with 100 μL of biotinylated-hGadd45β at concentrations ranging from 8.4 nM to 168 nM. Each data point was performed in triplicate. Following incubation for 1 hr in the dark at 37° C. the solutions were removed and the wells were again washed with T-PBS. Then 100 μL of a 1:10,000 dilution of horseradish peroxidase-conjugated streptavidin dissolved in buffer was added to each well and the plate incubated for 1 hr at 37° C. in the dark. After removal of the enzyme solution and washing, 100 μL of the chromogenic substrate o-phenylendiamine (0.4 mg/mL in 50 mM sodium phosphate-citrate buffer, containing 0.4 mg/mL of urea in hydrogen peroxide) was added and the colour was allowed to develop in the dark for 5 min. The reaction was stopped by adding 50 μL of 2.5 M H2SO4. The absorbance at 490 nm was measured in all wells and the values were averaged after subtracting the corresponding blanks. Bound protein was then detected as described above. The molar concentration of biotinylated-hGadd45β at which the half-maximal ELISA signal is detected corresponds to the dissociation constant (KD) (Friguet B, Chaffotte A F, Djavadi-Ohaniance L, Goldberg M E. J Immunol Methods. 1985 Mar. 18; 77 (2):305-19). Binding competition assays were performed by coating GST-MKK7 at 42 nM as described, a concentration of biotinylated-hGadd45β of 21 nM (pre-saturation conditions 1:0.5 mol/mol ratio) and, in a first test, using competitors at 21 nM. The binding of biotinylated hGadd45β to GST-MKK7 was analyzed in the presence of increasing amounts of competitor peptide (concentrations ranging from 0.01 nM to 100 nM), and the values obtained with the competitor were expressed as the percentage of the binding detected in the absence of competitor. […] According to the convention adopted in the table “L-Xaa” and “D-Xaa” refer to the L and D forms of amino acid Xaa.
A simplified combinatorial peptide library (Marasco et al. 2008, Curr. Protein Pept. Sci. 9:447-67) was screened for antagonists of the Gadd45β/MKK7 interaction. This library contained a total of 12^4=20,736 different tetrapeptides formed by combinations of the following amino acid residues Gln (Q), Ser (S), Arg (R), Ala (A), Tyr (Y), Pro (P), Met (M), Cys (C), Phe (F), Leu (L), His (H), Asp (D), and was iteratively deconvoluted in four steps by ELISA competition assays using at each step coated MKK7 (42 nM), soluble-biotin-hGadd45β (21 nM) and each of the 12 sub-libraries (42 nM).

[1] = Table I, initial Elisa screening, coated MKK7 42 nM, biotin-hGadd45β 21 nM, competitor 21 nM, sub-libraries 42 nM
[2] = Table II, modified pure peptides

Row | Compound | % Inhibition of Gadd45β-MKK7 binding (Table III, modified peptides) [%] | also measured
1 | Fmoc(βAla)2-YDHA-NH2 ({Fmoc-βAla-βAla}-YDHA-NH2; SMILES C[C@H](NC(=O)[C@H](Cc1c[nH]cn1)NC(=O)[C@H](CC(=O)O)NC(=O)[C@H](Cc1ccc(O)cc1)NC(=O)CCNC(=O)CCNC(=O)OCC1c2ccccc2-c2ccccc21)C(N)=O) |  | % Inhibition of Gadd45β-MKK7 binding [1]: 15%
2 | Ac-YEKW-NH2 |  | % Inhibition of Gadd45β-MKK7 binding [2]: 27%
3 | Ac-YDHQ-NH2 |  | % Inhibition of Gadd45β-MKK7 binding [2]: 99%
4 | CC(=O)NC(Cc1ccccc1)C(=O)NC(CCCNC(=N)N)C(=O)NC(Cc1ccc(O)cc1)C(N)=O (stereo not drawn) [Compound O1, Ac-FRY-NH2] (Ac-Phe-Arg-Tyr-NH2; configuration not given here) |  | IC50 (Table VI, compounds 0.01-100 nM, read-out: IC50 Elisa): > 100 nM
5 | Fmoc(βAla)2-YDHY-NH2 ({Fmoc-βAla-βAla}-YDHY-NH2; SMILES NC(=O)[C@H](Cc1ccc(O)cc1)NC(=O)[C@H](Cc1c[nH]cn1)NC(=O)[C@H](CC(=O)O)NC(=O)[C@H](Cc1ccc(O)cc1)NC(=O)CCNC(=O)CCNC(=O)OCC1c2ccccc2-c2ccccc21) |  | % Inhibition of Gadd45β-MKK7 binding [1]: 63%
6 | Ac-YERP-NH2 | 0 | 
7 | 2CI-Z-YDHF-NH2 (ClZ-YDHF-NH2) | 38 | 
8 | Fmoc(βAla)2-YDHF-NH2 ({Fmoc-βAla-βAla}-YDHF-NH2) |  | % Inhibition of Gadd45β-MKK7 binding [1]: 99%
9 | Benzoic acid-YERF-NH2 | 24 | 
10 | Benzoic acid-YDHF-NH2 | 0 | 
11 | Ac-YARF-NH2 | 17 | 
12 | NC(=O)CC[C@@H](NC(=O)[C@@H](Cc1c[nH]cn1)NC(=O)[C@@H](CC(=O)O)NC(=O)[C@@H](Cc1ccc(O)cc1)NC(=O)OCc1ccccc1)C(N)=O [Compound 32, Z-Tyr-Asp-His-Gln-NH2] (Cbz-[dY][dD][dH][dQ]-NH2) |  | IC50 (Table V, FIG. 3C, read-out: IC50 ELISA): > 10 nM
13 | Z-YDHQ-NH2 (Cbz-YDHQ-NH2) | 13 | 
14 | Myr-YDHF-NH2 (Myristoyl-YDHF-NH2) | 26 | 
